Series [1] concerns the target T1, nitric oxide sensitive guanylyl cyclase β1-subunit with carboxy-terminal Strep Tag II (UniProt P20595 1-619).
T1 construct: β1-subunit of nitric oxide sensitive guanylyl cyclase; PvuI/StuI fragment of the conjoined construct β1α1-Strep [27] in pFastBac1; predicted 72.2 kDa with tag; also called Strep tagged β1-subunit; source: Sf-9, recombinant baculovirus, cytosolic fraction; purified on Strep-Tactin Superflow; not shown: Strep Tag II, C-terminal, kept
T1 sequence (looked up): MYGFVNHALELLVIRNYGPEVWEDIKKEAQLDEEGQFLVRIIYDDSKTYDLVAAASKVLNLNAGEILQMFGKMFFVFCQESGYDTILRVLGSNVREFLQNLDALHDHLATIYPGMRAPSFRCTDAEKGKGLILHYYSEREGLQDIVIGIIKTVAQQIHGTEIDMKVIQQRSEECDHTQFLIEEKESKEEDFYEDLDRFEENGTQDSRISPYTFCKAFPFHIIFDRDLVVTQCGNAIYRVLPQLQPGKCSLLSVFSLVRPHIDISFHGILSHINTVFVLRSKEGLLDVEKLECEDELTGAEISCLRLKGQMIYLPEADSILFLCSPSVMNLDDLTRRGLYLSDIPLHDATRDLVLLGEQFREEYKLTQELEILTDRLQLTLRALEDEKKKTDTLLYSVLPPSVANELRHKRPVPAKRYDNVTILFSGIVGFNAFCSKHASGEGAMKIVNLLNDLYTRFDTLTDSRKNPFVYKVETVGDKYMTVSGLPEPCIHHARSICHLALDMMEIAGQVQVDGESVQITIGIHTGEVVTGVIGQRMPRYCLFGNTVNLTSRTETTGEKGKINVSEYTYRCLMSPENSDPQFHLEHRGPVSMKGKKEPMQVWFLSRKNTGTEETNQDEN
Kind of series: pull-down; co-purification: α1 variant expressed with carboxy-terminally Strep Tag II tagged β1 in Sf-9; cytosolic fraction applied to Strep-Tactin Superflow resin; buffer W 100 mM Tris-HCl, 1 M NaCl, 1 mM EDTA, 1 mM benzamidine, 10 mM DTT, pH 8.0; eluted with 2.5 mM D-desthiobiotin; on ice or at 4°C; SDS-PAGE, Coomassie staining, densitometry; cells also cultured without supplement, with hemin (4 mg/l), or with …. Particulars: partners not purified.

Series [2] deals with T2, nitric oxide sensitive guanylyl cyclase β1-subunit with carboxy-terminal Strep Tag II, P20595.
T2 chain: T1 sequence (looked up)
Kind of series: pull-down; co-purification: α1 variant expressed with carboxy-terminally Strep Tag II tagged β1 in Sf-9; cytosolic fraction applied to Strep-Tactin Superflow resin; buffer W 100 mM Tris-HCl, 1 M NaCl, 1 mM EDTA, 1 mM benzamidine, 10 mM DTT, pH 8.0; eluted with 2.5 mM D-desthiobiotin; on ice or at ….

B1: nitric oxide sensitive guanylyl cyclase α1-subunit, wild type (human) (natural protein, UniProt Q02108-1 1-690, looked up)
chain: MFCTKLKDLKITGECPFSLLAPGQVPNESSEEAAGSSESCKATVPICQDIPEKNIQESLPQRKTSRSRVYLHTLAESICKLIFPEFERLNVALQRTLAKHKIKESRKSLEREDFEKTIAEQAVAAGVPVEVIKESLGEEVFKICYEEDENILGVVGGTLKDFLNSFSTLLKQSSHCQEAGKRGRLEDASILCLDKEDDFLHVYYFFPKRTTSLILPGIIKAAAHVLYETEVEVSLMPPCFHNDCSEFVNQPYLLYSVHMKSTKPSLSPSKPQSSLVIPTSLFCKTFPFHFMFDKDMTILQFGNGIRRLMNRRDFQGKPNFEEYFEILTPKINQTFSGIMTMLNMQFVVRVRRWDNSVKKSSRVMDLKGQMIYIVESSAILFLGSPCVDRLEDFTGRGLYLSDIPIHNALRDVVLIGEQARAQDGLKKRLGKLKATLEQAHQALEEEKKKTVDLLCSIFPCEVAQQLWQGQVVQAKKFSNVTMLFSDIVGFTAICSQCSPLQVITMLNALYTRFDQQCGELDVYKVETIGDAYCVAGGLHKESDTHAVQIALMALKMMELSDEVMSPHGEPIKMRIGLHSGSVFAGVVGVKMPRYCLFGNNVTLANKFESCSVPRKINVSPTTYRLLKDCPGFVFTPRSREELPPNFPSEIPGICHFLDAYQQGTNSKPCFQKKDVEDGNANFLGKASGID
notes: predicted 77.6 kDa; also called α1WT; α1 full-length; source: Sf-9, recombinant baculovirus, cytosolic fraction; co-purified with β1-S on Strep-Tactin
Regarding B1, in series [1], the “ratio of band intensities of the α1 variant to β1” value worked out at 0.43.

B2: C-α1 splice variant of the nitric oxide sensitive guanylyl cyclase α1-subunit (human α1ΔN259) (domain or fragment, UniProt Q02108-1 259-690, looked up)
chain: MKSTKPSLSPSKPQSSLVIPTSLFCKTFPFHFMFDKDMTILQFGNGIRRLMNRRDFQGKPNFEEYFEILTPKINQTFSGIMTMLNMQFVVRVRRWDNSVKKSSRVMDLKGQMIYIVESSAILFLGSPCVDRLEDFTGRGLYLSDIPIHNALRDVVLIGEQARAQDGLKKRLGKLKATLEQAHQALEEEKKKTVDLLCSIFPCEVAQQLWQGQVVQAKKFSNVTMLFSDIVGFTAICSQCSPLQVITMLNALYTRFDQQCGELDVYKVETIGDAYCVAGGLHKESDTHAVQIALMALKMMELSDEVMSPHGEPIKMRIGLHSGSVFAGVVGVKMPRYCLFGNNVTLANKFESCSVPRKINVSPTTYRLLKDCPGFVFTPRSREELPPNFPSEIPGICHFLDAYQQGTNSKPCFQKKDVEDGNANFLGKASGID
notes: α1-subunit of nitric oxide sensitive guanylyl cyclase, human, amino-terminal deletion α1ΔN259; predicted 48 kDa; The name ΔN259 could also be read as loss of the first 259 residues; also called C-α1-splice form; source: Sf-9, recombinant baculovirus, cytosolic fraction; co-purified with β1-S on Strep-Tactin
Consider B2, for which, in series [1], the “ratio of band intensities of the α1 variant to β1” value amounted to 0.75. For the same molecule, the “relative heterodimerization by densitometry (% of α1WT)” value in series [2] is given as 166.2 % (±12.2 %).

Values taken from PMC3184163, “The Amino-Terminus of Nitric Oxide Sensitive Guanylyl Cyclase α1 Does Not Affect Dimerization but Influences Subcellular Localization” (PLoS ONE, 2011).
